Laboratory results: patent publication US20180142032A1 (Sanofi, published 2018)

Assays:
[1] = target: T1, cynomolgus monkey LAMP1 at the cell surface (cynomolgus monkey, UniProt P11279 29-417 (human entry)); assay: flow cytometry, HEK293 stable clone
T1 construct: also called cynoLAMP1; cynomolgus LAMP1
T1 chain: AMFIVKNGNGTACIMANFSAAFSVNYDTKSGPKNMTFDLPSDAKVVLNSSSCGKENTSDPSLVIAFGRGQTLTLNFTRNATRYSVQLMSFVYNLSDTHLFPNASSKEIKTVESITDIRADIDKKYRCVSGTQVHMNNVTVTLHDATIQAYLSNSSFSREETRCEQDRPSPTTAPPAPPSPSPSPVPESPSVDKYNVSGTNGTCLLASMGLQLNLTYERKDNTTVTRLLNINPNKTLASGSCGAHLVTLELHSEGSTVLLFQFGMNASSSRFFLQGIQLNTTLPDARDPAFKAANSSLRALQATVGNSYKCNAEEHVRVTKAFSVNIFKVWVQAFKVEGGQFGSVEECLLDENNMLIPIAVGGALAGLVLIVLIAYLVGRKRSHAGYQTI
Description: HCT116 stable clone was obtained as described above. HEK293 cells were infected by a lentiviral vector allowing stable integration of the human or the cynomolgus LAMP1 CDS in genomic DNA of cells. Individual clones with different densities of cynomolgus LAMP1 cell surface localization were derived from a pool of HEK293 infected cells. Protocol as described in example above. EC₅₀ values were estimated using BIOST@T-SPEED software.

hLAMP1_ΔGYQTI = target: T2, hLAMP1_ΔGYQTI (human, UniProt P11279 29-412); assay: flow cytometry, transfected 293-F cells, experiment 1
T2 construct: also called pXL5626
T2 sequence: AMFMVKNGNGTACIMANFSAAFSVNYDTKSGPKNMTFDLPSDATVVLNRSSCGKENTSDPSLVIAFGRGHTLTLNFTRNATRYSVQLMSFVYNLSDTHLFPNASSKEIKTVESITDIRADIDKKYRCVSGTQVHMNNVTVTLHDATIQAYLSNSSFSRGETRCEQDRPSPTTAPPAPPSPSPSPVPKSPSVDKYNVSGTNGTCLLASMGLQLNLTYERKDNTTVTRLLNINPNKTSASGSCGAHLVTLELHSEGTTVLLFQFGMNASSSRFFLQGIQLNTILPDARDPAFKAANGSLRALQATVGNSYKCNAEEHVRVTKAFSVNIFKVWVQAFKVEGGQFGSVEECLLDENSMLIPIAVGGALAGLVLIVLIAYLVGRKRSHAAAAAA

[2] = target: T3, human LAMP1 at the cell surface (human, UniProt P11279 29-417); assay: flow cytometry, HCT116 stable clones; human LAMP1 on recombinant HCT116 stable clones
T3 construct: native on tumour cells (PDX, Colo205, SW480, LS174T) or from the cloned CDS NM_005561.3 in HEK293 and HCT116; signal peptide 1-28 left out; also called huLAMP1; full length human LAMP1
T3 sequence: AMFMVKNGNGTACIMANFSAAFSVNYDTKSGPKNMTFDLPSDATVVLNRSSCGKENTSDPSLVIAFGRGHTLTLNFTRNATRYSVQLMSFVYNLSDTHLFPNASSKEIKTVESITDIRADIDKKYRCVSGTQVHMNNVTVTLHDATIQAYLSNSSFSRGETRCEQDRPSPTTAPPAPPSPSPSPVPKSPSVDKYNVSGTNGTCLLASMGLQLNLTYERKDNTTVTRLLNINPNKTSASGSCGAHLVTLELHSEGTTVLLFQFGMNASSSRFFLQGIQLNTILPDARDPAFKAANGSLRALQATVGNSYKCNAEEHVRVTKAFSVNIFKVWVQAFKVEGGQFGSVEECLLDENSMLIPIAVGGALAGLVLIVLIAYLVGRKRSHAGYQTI
Description: (§1) HCT116 cells were infected by a lentiviral vector allowing stable integration of the human or the cynomolgus LAMP1 CDS in genomic DNA of cells. Individual clones with different densities of human or cynomolgus LAMP1 cell surface localization were derived from a pool of HCT116 infected cells. […] 100 μL/well of goat anti-human IgG conjugated with Alexa488 (Invitrogen; # A11013) was added for 1 h at 4° C. and washed two times with PBS 1% BSA. The antibody binding was evaluated after centrifugation and resuspension of cells in 100 μl fixing solution (paraformaldehyde at 4% in PBS). Samples were read using Galaxy® Flow Cytometry System (Partec). EC50 values were estimated using BIOST@T-SPEED software.

cLAMP1::histag = target: T4, cLAMP1::histag (cynomolgus monkey, UniProt P11279 29-380 (human entry)); assay: ELISA on coated recombinant LAMP1 extracellular domain, detected with anti-mouse IgG-HRP; antibody concentration not given
T4 construct: extracellular domain with C-terminal tag that includes 6 His; also called cynomolgus LAMP1 (27-380); cynomolgus monkey LAMP1 protein
T4 chain: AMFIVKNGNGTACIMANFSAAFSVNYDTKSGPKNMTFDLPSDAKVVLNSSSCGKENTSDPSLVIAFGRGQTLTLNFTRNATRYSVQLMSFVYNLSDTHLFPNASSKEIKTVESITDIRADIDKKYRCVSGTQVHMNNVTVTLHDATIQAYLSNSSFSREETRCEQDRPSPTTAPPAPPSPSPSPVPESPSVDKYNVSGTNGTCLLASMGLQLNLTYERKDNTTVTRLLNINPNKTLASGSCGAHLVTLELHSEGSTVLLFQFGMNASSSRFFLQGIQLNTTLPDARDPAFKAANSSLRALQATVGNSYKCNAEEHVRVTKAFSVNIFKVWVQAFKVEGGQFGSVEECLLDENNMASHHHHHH
Description: The antibody binding was visualized by adding TMB-H₂O₂ buffer and read at a wavelength of 450 nm.

[3] = target: T3, human LAMP1 at the cell surface; assay: flow cytometry, HCT116 stable clones
Description: (§2) 100 μL/well of goat anti-mouse IgG conjugated with Alexa647 (Invitrogen; # A2135) was added for 45 min at 4° C. and washed three times with PBS 1% BSA. The antibody binding was evaluated after centrifugation and re-suspension of cells by adding 200 μl/well PBS 1% BSA and read using Guava® easyCyte™ 8HT Flow Cytometry System. EC50 values were estimated using BIOST@T-SPEED software.

[4] = target: T1, cynomolgus monkey LAMP1 at the cell …; assay: flow cytometry, HCT116 stable clones
Description: as §2

[5] = target: T3, human LAMP1 at the cell surface; assay: flow cytometry, HCT116 huLAMP1 clone 8
Description: as §1

[6] = target: T1, cynomolgus monkey LAMP1 at the cell …; assay: flow cytometry, HEK293 cynoLAMP1 clone 44

B1: MAb3 (antibody, V domains shown)
VH: QIQLVQSGPELKKPGETVKISCKASGYIFTNYGMNWVKQAPGKGLKWMGWINTYTGESRYADDFKGRFALSLETSASTAYLQINNLENEDMATYFCAREDYYGNSPWFFDVWGAGTTVTVSS
VL: DIQMTQTTSSLSASLGDRVTISCNASQGINKYLNWYQQKPDGTVKLLIYYTSTLHSGVPSRFSGSGSGTDYSLTINNLEPEDIATYYCQQYTKLPFTFGSGTKLEIK
notes: murine monoclonal IgG, kappa, from hybridoma; also called murine MAb3
EC50 [1]: 4 nM

B2: MAb1 (antibody, mouse IgG2a, kappa)
heavy: QVQLQQSGAELVKPGASVKMSCKASGYIFTNYNIHWVKKSPGQGLEWIGAIYPGNGDAPYSQKFKDKATLTADKSSSTTYMQLSRLTSEDSAVYYCVRANWDVAFAYWGQGTLVSVSAAKTTAPSVYPLAPVCGDTTGSSVTLGCLVKGYFPEPVTLTWNSGSLSSGVHTFPAVLQSDLYTLSSSVTVTSSTWPSQSITCNVAHPASSTKVDKKIEPRGPTIKPCPPCKCPAPNLLGGPSVFIFPPKIKDVLMISLSPIVTCVVVDVSEDDPDVQISWFVNNVEVHTAQTQTHREDYNSTLRVVSALPIQHQDWMSGKEFKCKVNNKDLPAPIERTISKPKGSVRAPQVYVLPPPEEEMTKKQVTLTCMVTDFMPEDIYVEWTNNGKTELNYKNTEPVLDSDGSYFMYSKLRVEKKNWVERNSYSCSVVHEGLHNHHTTKSFSRTPGK
light: DIQMTQSPPSLSASLGGKVTITCKASQDIDRYMAWYQDKPGKGPRLLIHDTSTLQPGIPSRFSGSGSGRDYSFSISNLEPEDIATYYCLQYDNLWTFGGGTKLEIKRADAAPTVSIFPPSSEQLTSGGASVVCFLNNFYPKDINVKWKIDGSERQNGVLNSWTDQDSKDSTYSMSSTLTLTKDEYERHNSYTCEATHKTSTSPIVKSFNRNEC
notes: murine monoclonal IgG, kappa, from hybridoma; also called murine MAb1
mean fluorescence (hLAMP1_ΔGYQTI): 1750 | EC50 [2]: 4.9 nM | binding result (cLAMP1::histag): binds

B3: MAb2 (antibody, mouse IgG1, kappa)
heavy: QVQLQQSAAELARPGASVKMSCKASGYTFTSYTMHWVKQRPGQGLEWIGYFNPSSGYPEYNQKFKDKTTLTADKSSNTAFIQLNSLTSEDSAVYYCSRGYYYGSRGYALDFWGQGASVTVSSAKTTPPSVYPLAPGSAAQTNSMVTLGCLVKGYFPEPVTVTWNSGSLSSGVHTFPAVLQSDLYTLSSSVTVPSSTWPSETVTCNVAHPASSTKVDKKIVPRDCGCKPCICTVPEVSSVFIFPPKPKDVLTITLTPKVTCVVVDISKDDPEVQFSWFVDDVEVHTAQTQPREEQFNSTFRSVSELPIMHQDWLNGKEFKCRVNSAAFPAPIEKTISKTKGRPKAPQVYTIPPPKEQMAKDKVSLTCMITDFFPEDITVEWQWNGQPAENYKNTQPIMDTDGSYFVYSKLNVQKSNWEAGNTFTCSVLHEGLHNHHTEKSLSHSPGK
light: NIVLTQSPVSLAVSLGQRATISCRASESVDINGNTFMHWYQQKPGQSPKLVIYAASNIESGVPARFSGSGSSTDFTFTIDPVEADDVATYYCQQNIEDPWTFGGGTKVEIKRADAAPTVSIFPPSSEQLTSGGASVVCFLNNFYPKDINVKWKIDGSERQNGVLNSWTDQDSKDSTYSMSSTLTLTKDEYERHNSYTCEATHKTSTSPIVKSFNRNEC
notes: murine monoclonal IgG, kappa, from hybridoma; also called murine MAb2
EC50 [3]: 6.3 nM | EC50 [4]: 6.6 nM

B4: huMAb1_1 (antibody, human IgG1, kappa)
heavy: not shown
light: DIQMTQSPSSLSASVGDRVTITCKASQDIDRYMAWYQDKPGKAPRLLIHDTSTLQSGVPSRFSGSGSGRDYTLTISNLEPEDFATYYCLQYDNLWTFGGGTKVEIKRTVAAPSVFIFPPSDEQLKSGTASVVCLLNNFYPREAKVQWKVDNALQSGNSQESVTEQDSKDSTYSLSSTLTLSKADYEKHKVYACEVTHQGLSSPVTKSFNRGEC
notes: humanized, VH1-huIgG1 and VL1-huCk
EC50 [5]: 15 nM | EC50 [6]: 30.1 nM
